The text below walks through data of the NTF2 design screens of Basanta et al. (2020).

The series can be described thus: protease stability score; higher = more stable; yeast display proteolysis, trypsin and chymotrypsin.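 Note: relative to predicted unfolded state with 0 unfolded-like and 1 meaning tenfold more protease.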
Sequence “DEEKEVMKELYEMLIHDLLTGNEESLHKLLDPHVKVDIDGKILHGMEATVKWWKEAGADHTDIHSVERQGEKIIINMILRVGDKTLRLHVHIIVVNGRVESIRVELRHE” showed a protease stability score of 1.01. In turn, “SEDEDLSRHLSELWLDALRTGDEKSTHKMADPHTRVEVGDKTDHGMEVWNRIFERFKGARLEITEWRTIGEKVHYHMHIEYGDKHVDVEIEIIQINGQVKEFIIRVRIK” gave a protease stability score of 0.249. With “HEESEDATRFLHQVIHALYTGDEKRFDELLDPRMRLHIGDKQHVGRENVSEFLLHLRIRHVHVHDFRVFDGRLHVDQTLDGEYDGRRREIHFELQITKINGRWFLNHFWIR” the figure was 1.35; with “HESEEYAHRVSKDFDRAMRTGDWLRLLELIDPNARLHVGEFHVHGMEDIEKWIRHFLHRVDVIHIRVRDMRVQGEKVDVDYEIEERQGDKRRHYESRTIILKIDGKWHIKEIHIH”, 1.14. “DEDQKAATRFTELLVRLLFTGDEEMWLQLADPRMILDFENHSEHGMKLVVKLLHETIERRGMRIDDMHHTHIEFQGEWVRVHVRVHERIGDKRISVEVEYKSLKVNGRWILHEIHIH” came in with a protease stability score of 0.372. To “DELEEDVRSSLKVLLHSHRTGNEELNEKMADPNARVTVDGVEFHGREEMVHWISHIRVERFILRSVHFQGDKLHIDGESDGVVNGRRWRRRTHIIELKVDGKWVLKSLIFE” belongs 1.46; to “NEDEEIVRERFEEFLDMMFTGDWTSLEKLLDPHYRLDIGDKHHHGREEFIEFVRKIKNLRIDIKRVSVIVIDGRAINHVDGVLHFNGKTEKVHIIVVAKKIDGRWIVERVTIETH”, 2.08. With “DEEKEEWEELFKEFEHSIHTGDFRVLAKQMDPHVRIIYGEKRVHGREDAHKLMRDTLEKLGVDHMHVEDNHLQGDFIHLQIRRHVNGRTMTVHFLIWKYNGRWYMHSIKIE” the figure was 1.43; with “SEDHERTEIAFKIMLHIFDTGDEHTMHRLVDPNARLRIGDKDWHGREFFFDVISRIKNLRIEELSIEDDDFVNGRIILHGRRNGSIGDKEIDTIVHLLIKKVDGRWRIEHVHNE”, 1.36; with “SEEEHHAEEFVKIFTMTNLTGDFTTLEKLADPNVQIDVGDKHFHGREEMLKLIQDERREFGFKHLHLEIDRIETQGNFLDVHITVIIRVNGVEMRHKRRLTILKIDGQWHIKSVEVD”, 1.27. Take “HEEKENIEQFMRDLLHNWTTGNFEKIKEFLDPNTRIDWNGKDIHGRETESEEVKKYGIDHMSIILRHHTVQGDYAHIDTEIKIDINGRKIHIDARIDLLKINGRWVQKHVLYL”: the protease stability score turned out to be 1.3.

The sequence “SERDRHNEEMARHFIRLFLTGDWDDFQHLFDPNVRTHIDGRDYHGWRSTLEAVRTLEREIRIEEIRVEHVDTQGDFIHQDTKVDFNVNGQRVIRESKVHIYEVNGRIKEIEMHYH” yielded a protease stability score of 0.486. To “SEEETMERLSIEITLEMLKTGDETEILKNMDPDARVIVGDKVYHGREHVIELWRRLGVKHSEPKHVYVINGRVHIDMEVHVDGKRFHVHIISHKINGQWSITNVKLEKE” belongs 2.02. To “DEATKDAERIIEMFIRAIETGDEKVFKRLLDPNVRLVVDGKEFHGREKFIEWLRRIDVTHQVHFRLHDSDMQGDKLHLDSSEIHDVKYNGVRFVDHYRVHLQIHKFDGRWHLENIIIR” belongs 1.51; to “DEMHEYTERLLHLLTFAQITGDERIHERLADPNVKIHINGREFHGREEVWHSLEEIRVRHTELRESDIQGDKINVNGDVDLHFNGVDIVTKVRIVVDKVNGRWRISFLRID”, 0.546. To “DHEEHYSRIAVQEVLHRMLTGDEESLVKLADPHTRMTIGDKELHGWELVFEFLRDWVHKFKNIRLHIHQHEVQGDKIHIEIRVLIDGKEQDVKIHAEKIDGKWIYRQSHFR” belongs 0.751.

In turn, “SESEEIAHNFTELLIKTLNTGDEKLYRELADPNARIEINGVELVGWKKANELLQRIDHERVRRVKLKDIEVQGDKVIVRTHEEREINIGDKRLHIRTDVEIIWVKINGKWILHEISVH” showed a protease stability score of 1.23. Turning to “SEEEDRIRQALELELHYLRTGDEDSTRRLIDPHMKLTVNGKEHHGMDWFIEELRRVDHIEMHPHHIHSFGEKAHIRVKLTLHFDGVTFERDVTIVFHKVDGRWVIESMQLD”, the protease stability score amounted to 1. With “SEEERVAIEHMRWVIRALLTGDEELLRHLFDPSTRFDFDGQHRIGMEDLVRFWRHLRVRRFEIEDERVHFQGDKIEARTEGRIQGDINGKNVEREIRVILIVMKIDGKWIIRIISHEVD” the figure was 1.63.
